Laboratory results reported in patent publication US20180126013A1 (H LEE MOFFITT CANCER CENTER AND RESEARCH INSTITUTE, published 2018).
Square brackets hold non-standard residues; d marks the D form. Side chains are listed from the residue outwards. Ends that are not written are not given here. * marks the point of attachment. 1‑phenylbutyric acid = 1-phenylbutyric acid (N-terminal acyl cap); D‑di‑Glu = D-di-Glu linker between Lys side chain and DOTA; DOTA = O=C(O)CN1CCN(CC(=O)O)CCN(CC(=O)*)CCN(CC(=O)O)CC1; Ahx = NCCCCCC(=O)O

Key:
[1] = target: T1, melanocortin-1 receptor (MC1R) (UniProt Q01726 1-317, limits assumed); test: TRF saturation binding with the Eu chelate on Hek293/MC1R cells; specific = total minus nonspecific (20x MC1RL-DOTA block)
T1 construct: whole, on cells; also called Hek293/MC1R cells; A375/MC1R cells
Description: The binding sequence is 1-Phenylbutyric acid-His(D)Phe-Arg-Trp-Gly-Lys(D-di-Glu-DOTA)-CONH₂. Eu is chelated into the conjugated DOTA for lanthanide-based binding assays but ²²⁵Ac, ⁶⁸Ga, or ¹¹¹In can also be chelated. […] 20×MC1Rl-DOTA was used for blocking. […] Data is the result of two repeats.
(§1) Time-resolved fluorescence (TRF) competition binding assays were performed to determine binding affinities of these DOTA conjugates (FIG. 2). The TRF method takes advantage of the long fluorescence lifetime of the lanthanide Europium and can detect less than one attomole in a multiwell plate sample. Hek293/MC1R cells (Hek293 cells engineered to over-express MC1R) were used for the binding assays. Saturation TRF binding assays were performed using versions of the compounds with chelated europium to determine specific and non-specific binding (FIG. 17-20).

[2] = target: T1, melanocortin-1 receptor (MC1R); test: time-resolved fluorescence (TRF) competition binding assay on Hek293/MC1R cells
Description: as §1

[3] = target: T1, melanocortin-1 receptor (MC1R); test: competitive binding assay (FIG. 2)
Description: as §1

[4] = target: T1, melanocortin-1 receptor (MC1R); test: not stated in the sentence (binding affinity of the DOTA conjugate and its chelates)

T1 sequence (Q01726 whole entry): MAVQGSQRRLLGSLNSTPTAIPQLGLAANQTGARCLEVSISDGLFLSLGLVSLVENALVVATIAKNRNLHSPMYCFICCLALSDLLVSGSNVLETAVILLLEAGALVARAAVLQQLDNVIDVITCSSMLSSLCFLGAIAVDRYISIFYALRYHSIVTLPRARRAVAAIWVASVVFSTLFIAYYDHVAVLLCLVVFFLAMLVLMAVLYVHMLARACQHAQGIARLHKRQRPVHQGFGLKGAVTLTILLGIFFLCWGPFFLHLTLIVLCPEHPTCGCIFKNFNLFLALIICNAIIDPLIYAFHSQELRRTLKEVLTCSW

| Binder | Kd [1] [nM] | Ki [2] [nM] | further results |
| --- | --- | --- | --- |
| {1‑phenylbutyric acid}-H[dF]RWGK(DOTA)-NH2 (also: 152Eu chelate, also called 1-Phenylbutyric acid-His(D)Phe-Arg-Trp-Gly-Lys(DOTA)-CONH2, Eu chelate) [MC1RL linked to DOTA:^152Eu] | 0.69 | – | – |
| H[dF]RWGK([Ahx-DOTA])-NH2 (not fully specified (N-terminus); also: nonradioactive 67/69Ga chelated by DOTA, Nonradioactive surrogate of the ^68Ga PET agent) [^67/69Ga-DOTA-MC1RL] | – | 0.34 | – |
| {1‑phenylbutyric acid}-H[dF]RWGK([D‑di‑Glu-DOTA])-NH2 (also: 152Eu chelate, also called 1-Phenylbutyric acid-His(D)Phe-Arg-Trp-Gly-Lys(D-di-Glu-DOTA)-CONH2, Eu chelate) [MC1RL linked through D-di-Glu to DOTA:^152Eu] | 0.19 | – | – |
| H[dF]RWGK([Ahx-DOTA])-NH2 (not fully specified (N-terminus); also: 139La chelated by DOTA, Nonradioactive surrogate of ^225Ac-DOTA-MC1RL; also called cold agent) [^139La-DOTA-MC1RL] | – | 0.23 | Ki [3]: 0.2 nM |
| {1‑phenylbutyric acid}-H[dF]RWGK([Ahx-DOTA])-NH2 (also: 152Eu chelate, also called 1-Phenylbutyric acid-His(D)Phe-Arg-Trp-Gly-Lys(Ahx-DOTA)-CONH2, Eu chelate) [MC1RL linked through aminohexanoic acid (Ahx) to DOTA:^152Eu] | 0.88 | – | – |
| H[dF]RWGK([Ahx-DOTA])-NH2 (not fully specified (N-terminus), also called MC1RL-DOTA; DOTA labeled conjugate of the MC1R specific ligand) [DOTA-MC1RL (unlabeled)] | – | 0.24 | Ki [4]: 0.3 nM |
